Measured values as given in the supplement of paper PMC12042874.
± gives the uncertainty stated by the source.

assay: amyloid nucleation score (Sup35N fusion, yeast selection) (log enrichment); library NNK3; higher = more nucleation; inactive = no reads after selection
Procedure, shortened: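 Three technical output replicates were used for random libraries. Psi-negative yeast expressing peptides of 20 random codons fused to Sup35N were induced with 100 μM copper sulfate for 24 hours and grown 7 days at 30°C on medium lacking adenine and uracil, and input and output plasmid inserts were Illumina-sequenced, excluding sequences with under 100 input reads. The nucleation score is the DiMSum log enrichment of output over input reads, centred on the mode score of non-aggregating sequences.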

| Substance | amyloid nucleation score |
| --- | --- |
| TASRFFCRWVYFRKGVSRCS | inactive |
| TASYSLVVVVENRKSCMVDN | inactive |
| TAVKTGGLLRVVALGNSLNA | 0.399 ± 0.24 |
| TAYVNSGVEIYGFSVTRNNS | 1.48 ± 0.11 |
| TCFKM | inactive |
| TCHIRKWSEGWLKYMDCRSP | inactive |
| TCKWFFHHAIDCLRKRISME | inactive |
| TCLQVSTFFVQASKSLYLPI | 0.953 ± 0.11 |
| TCMPRFSALYICSGTLDKKL | inactive |
| TCQRRYKKFS | -0.633 ± 0.52 |
| TCRQNFCYCLDVIVQSCLSS | inactive |
| TCSVCMGQVTMVIRYVNSNC | inactive |
| TCVKMDRRSLAINALLSYYR | inactive |
| TCWFGIQLSGL | 0.651 ± 0.2 |
| TDHCMVGGMYLEPVTIFFEG | inactive |
| TDLIIIRRPNFGKRGSGLGV | inactive |
| TDNAVMGSHCI | inactive |
| TDPGILYMSCIRVMLGLFWD | inactive |
| TDRRKK | inactive |
| TDTIKSVVYVSVLDGDYNSG | inactive |
| TDVRFDRLTCCNSLIKITRW | 1.14 ± 0.082 |
| TDYPLLMLL | inactive |
| TEFPQEEPGTSLAQFP | -0.69 ± 1.1 |
| TEISSSMSFVHNFIYVCDR | inactive |
| TEYFWGNYRKLCCFWWWLGR | inactive |
| TEYRYVLSISCH | inactive |

| Substance | amyloid nucleation score |
| --- | --- |
| TFCLSYFHLL | inactive |
| TFEQVCVLL | inactive |
| TFFWLLCN | inactive |
| TFHLRDCKSF | 0.133 ± 1 |
| TFSISSGSASYCVSSVDSS | inactive |
| TGEQECLKQMSISGNRIFVV | inactive |
| TGFNASCCLLGSRCGAEKIL | 0.604 ± 0.18 |
| TGFSVFYSVYRRQGH | 0.912 ± 0.19 |
| TGIMIVNYLVSELKPRTIST | 0.923 ± 0.11 |
| TGISSNHKFMESIDSYVGTP | inactive |
| TGLIWLCESNRMLTVGSSLR | inactive |
| TGLKYRLY | inactive |
| TGLLYFRFDCGSSIIRSRYY | 0.875 ± 0.1 |
| TGNDGYCVCSVCYLRICVAN | inactive |
| TGQQE | inactive |
| TGQYMYKWSGLRWSYGGTFA | inactive |
| TGRYVNWRASLSFAYNRMMI | inactive |
| TGVRMWFVG | inactive |
| TGVWLRACSYEGEFGEDRKL | inactive |
| THLRLIYITD | inactive |
| THRFVVLCEIITNPTEMGSG | 0.703 ± 0.35 |
| THSPKISRFLDNSRMRQFFT | inactive |
| THSVIFRVRYHLSYNAIRIF | inactive |
| TICVYHVSFCIQHRVSRGLL | -0.18 ± 0.36 |
| TIEYLAGYFILMSQILGGDV | inactive |
| TIFVTTR | inactive |

| Substance | amyloid nucleation score |
| --- | --- |
| TIHYG | inactive |
| TIIDGLKCFFPAFFME | inactive |
| TILSPMASSQNKCDKNPMLS | 1.19 ± 0.073 |
| TILWGLQTQTQNCVVWKLGR | 1.69 ± 0.12 |
| TINDLSCGASRDGWMPVYS | inactive |
| TISCTDNFCSFILIRDGLTH | 1.96 ± 0.059 |
| TIYLDNTQLSLFRIGPVARR | 1.9 ± 0.094 |
| TKASKMTKQIF | inactive |
| TKCNRALHMEVIIQATAVAR | inactive |
| TKEAY | inactive |
| TKGFTSLSTIFFKVNKFD | inactive |
| TKIYVLLFTSLVLVDTVLFL | -0.002 ± 0.4 |
| TKSYSMVSPIRVLNTDLIY | inactive |
| TLDLSHTMVCRLEYFSSAIG | inactive |
| TLFFSNDRVRFGRSTSRCHM | inactive |
| TLFLFIMVMGYSLANLVDSS | inactive |
| TLKCQHCIHVLGCVDMLTNF | 1.46 ± 0.11 |
| TLKRWLNLDRSSYIRESIKR | inactive |
| TLLPAVQIWHDIKHSTRTSW | inactive |
| TLNFMWASEVLVSMSVSNQL | inactive |
| TLPKVMFVIQNYGFFSGFTL | 1.32 ± 0.079 |
| TLSAEGVRRLFTCACSYHEG | 0.532 ± 0.47 |
| TLSGLVWWCVVFAMAT | inactive |
| TLSSLPVPL | inactive |
| TLSWNISCVCSERPFFNMHV | inactive |
| TLVFHISFGDLVHEILNCAV | 2.17 ± 0.088 |
